Non-standard residues stand in square brackets, D forms with d. No end group written: not given here. Gly(cPent) = N[C@H](C(=O)O)C1CCCC1; Hyp = O=C(O)[C@@H]1C[C@@H](O)CN1; dTic = O=C(O)[C@H]1Cc2ccccc2CN1
T1: human bradykinin B1 receptor (human, UniProt P46663 1-353)
T1 sequence (looked up): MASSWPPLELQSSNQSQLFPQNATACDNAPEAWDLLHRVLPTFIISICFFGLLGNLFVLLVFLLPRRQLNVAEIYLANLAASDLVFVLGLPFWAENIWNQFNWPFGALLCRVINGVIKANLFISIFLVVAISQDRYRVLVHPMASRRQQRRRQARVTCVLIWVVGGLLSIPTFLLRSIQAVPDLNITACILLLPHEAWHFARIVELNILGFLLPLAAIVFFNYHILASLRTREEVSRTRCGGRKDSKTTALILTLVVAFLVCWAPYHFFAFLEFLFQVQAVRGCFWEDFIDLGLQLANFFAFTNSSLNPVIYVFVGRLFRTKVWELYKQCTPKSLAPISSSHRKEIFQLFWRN

T2: human bradykinin B2 receptor (human, UniProt P30411 1-391)
T2 sequence (looked up): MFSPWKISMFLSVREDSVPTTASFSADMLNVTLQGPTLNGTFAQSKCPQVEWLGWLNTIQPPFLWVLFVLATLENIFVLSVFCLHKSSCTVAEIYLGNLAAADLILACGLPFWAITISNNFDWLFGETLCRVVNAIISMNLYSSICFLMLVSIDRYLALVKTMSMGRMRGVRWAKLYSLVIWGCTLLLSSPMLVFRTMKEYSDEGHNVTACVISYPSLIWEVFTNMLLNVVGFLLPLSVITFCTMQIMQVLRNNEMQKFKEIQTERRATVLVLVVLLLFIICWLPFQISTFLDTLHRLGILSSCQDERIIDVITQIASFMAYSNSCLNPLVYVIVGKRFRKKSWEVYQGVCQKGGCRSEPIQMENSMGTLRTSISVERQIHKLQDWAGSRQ


Assays:
[1] = molecular target: T1, human bradykinin B1 receptor; assay: cell-based or functional assay
[2] = molecular target: T2, human bradykinin B2 receptor; assay: cell-based or functional assay
[3] = molecular target: T1, human bradykinin B1 receptor; assay: binding affinity (Ki) at the human B1 receptor; assay format not described
[4] = molecular target: T1, human bradykinin B1 receptor; assay: cell-based or functional assay; remark: listed apart in the source

| Binder | IC50 in the hB1 aequorin assay [1] | antagonist activity in the hB2 FLIPR assay [2] | Ki [3] | hB1 IC50 (nM), functional potency [4] | fold increase in IC50 in the hB1 aequorin assay against the unconjugated peptide [1] |
| --- | --- | --- | --- | --- | --- |
| KKRP[Hyp]G[Gly(cPent)]S[dTic][Gly(cPent)] [SEQ ID NO:36] | 3 nM | > 10 µM |  |  |  |
| Ac-KKRP[Hyp]G[Gly(cPent)]S[dTic][Gly(cPent)] [SEQ ID NO: 37] |  | > 10 µM | 0.8 nM | 1 nM |  |
| KKRP[Hyp]G[Gly(cPent)]S[dTic][Gly(cPent)] (also: conjugated to PEG, size, linker and site not given here) [the same peptide (SEQ ID NO:36) conjugated to PEG] |  | > 10 µM |  |  | ~10 fold |
